The DeepSol protein solubility set

experiment: soluble on expression in E. coli; label from the status in PepcDB or PDB records

Question: For “MSGMWLWASVSPESTGIKMSESFAELFEESLKTLNLQPGAIITGIVVDIDGDWVTVHAGLKSEGVIPLEQFYNEAGELTIKVGDEVHVALDAVEDGFGETKLSREKAKRAECWIVLEAAFAAEEVVKGVINGKVKGGFTVDVNGIRAFLPGSLVDVRPVRDTTHLEGKELEFKVIKLDQKRNNVVVSRRSVLEAENSAEREALLETLQEGQQVKGIVKNLTDYGAFVDLGGIDGLLHITDMAWKRIKHPSEIVNVGDEVDVRVLKFDRERNRVSLGLKQMGEDPWVAITARYPEGTRVQARVTNLTDYGCFAELEEGVEGLVHVSEMDWTNKNIHPSKVVQVGDEVEVMVLDIDEERRRISLGIKQCKSNPWEDFSGQFNKGDKITGTIKSITDFGIFIGLDGGIDGLVHLSDISWNETGEEAVRRFKKGDELETVILSVDPERERISLGIKQLEDDPFSNFVAVNDKGAIVKGIVKEVDAKGAIVTLADDIEATLKASEISRDRVEDARNVLKEGEEIEAKIISVDRKSRVISLSIKSKDDAEEREAIQSLKNAPEAAADTTMAALLREAMAKQNLEHHHHHH”, which “soluble on expression in E. coli” value is on record?
Answer: soluble

Question: For “SAALTDVQRLQSRVEELERWVYGPGGTRGSRKVADGLVKVQVALGNIASKRERVKILYKKIEDLIKYLDPEYIDRIAIPEASKLQFILAEEQFILSQVALLEQVNALVPVLDSASIKAVPEHAARLQRLAQIHIQQQDQCVAITEESKALLEGYNKTTMLLSKQFVQWDELLCQLEAAKQVKPAEE”, which “soluble on expression in E. coli” value is on record?
Answer: soluble

Question: For “MGSDKIHHHHHHMGTKKNFVLDTNVILHDYNCLKNFQENDIYLPIVVLEELDKFKKGNEQINYNAREFVRELDLITDDSLFTHGAPLGEGLGKLFIVTGDSEAPKVHESFPARKPDHQILAVAEYLARKYPKMKNILVTKDVNLRMKARSIGILCEDYITDKVVNVDIFEKSNEVFENIEPDLIDRIYSSREGLDISEFDFKDIIRPNECFILKSDRSSVLARYNPFTHTVCRVNKTKNYGIEPRNAEQSFAFEILNDPDIKLVALTGKAGTGKTLLALAAALGKLTEYKQILLARPIVALSNKDLGFLPGDATEKVAPYMQPLFDNLNVIKRQFASNSTEVKRLEDMQKSEQLVIEALAFIRGRSLSETYCIIDEAQNLTPHEIKTIITRAGEGTKMVFTGDIQQIDQPYLDSQSNGLVYMIDRMKDQNLFAHVNLVKGERSELSELASNLM”, which “soluble on expression in E. coli” value is on record?
Answer: not soluble

Question: For “GSHMAKEEIIWESLSVDVGSQGNPGIVEYKGVDTKTGEVLFEREPIPIGTNNMGEFLAIVHGLRYLKERNSRKPIYSNSQTAIKWVKDKKAKSTLVRNEETALIWKLVDEAEEWLNTHTYETPILKWQTDKWGEIKADYGRK”, which “soluble on expression in E. coli” value is on record?
Answer: soluble

Question: For “MSLGIPPNEAKTLGTYVPGDITLVDSYGNEFQLKNLKGKPIILSPIYTHCRAACPLITKSLLKVIPKLGTPGKDFWVITFTFDPKDTLEDIKRFQKEYGIDGKGWKVVKAKTSEDLFKLLDAIDFRFMTAGNDFIHPNVVVVLSPELQIKDYIYGVNYNYLEFVNALRLARGEGHHHHHH”, which “soluble on expression in E. coli” value is on record?
Answer: soluble

Question: Which “soluble on expression in E. coli” value does the source give for “MPVKLATALSNNLFPALDSQLRAGRHIGIEELENHVFLMDFQEVLEEFYSRYNVELIRAPEGFFYLRPRSTTLIPRSVLSELDMMVGKILCYLYLSPERLAHEGIFSQQELYEELLSLADESKLLKLVNQRSTGSDLDRQKLQEKVRTSLNRLRRLGMIYFMGNDSSKFRITESVFRFGADVRSGDDAREAQLRMIRDGEAMPVEGSLSLKDDSDDNDRTDDTAPETGEDELEHHHHHH” here?
Answer: not soluble

Question: With “MGSDKIHHHHHHMQSIMPEADYSFLSMDPTMNANTGNKDSLATPSHTPQLQAFCDVVESRRSVRRFTDAPIPDDVLADCLRLAMLAPNSSNLQPWEFYVIDDADKRKRAVKNCMNQNAAKTSARLIAVVARTDVWHDHAKKILREYPDMPVPKKVKDYYNKVVALDFLRGPANVVSVAKWSAIQVVRRIKGPIKSPYYTFEDTKNWATNNTALAAGNLMLALRAHGFDSCPMGGFDEPAMKRLLKLSNHHHIVMMIGAGERADNGVYNTQFRFEQDQFVHYV” as the sequence, how does the “soluble on expression in E. coli” value read?
Answer: not soluble

Question: With “MTDPARMVELWRGGLLESWHTGHAAVWSADGGLVEAWGDPGTVIFPRSSCKMMQALPLLESGAGAGLSSQRLALACASHQGAELHTGHVGRWLTDLGLCEADLRCGAHMPADTAERDRLIRAYEEPCQIHNNCSGKHAGFLMLSQHLKAGPEYVEIDHPVQQAVRTAFEEVTDEASPGYGIDGCSAPNFATTVAGLARAMAFFAGASTGGGVRERSAARLVEAMIAHPELVAGEGRACTELMRAMGGRAAIKTGAEAVFVAIVPEKRLGIALKIVDGSTRASEAAIAALLVRHGLLDPAHPAARKRLDAIQTNWRGRETGILRAAPGFPLEHHHHHH” as the sequence, how does the “soluble on expression in E. coli” value read?
Answer: not soluble

Question: Which “soluble on expression in E. coli” value does the source give for “MQLSHRPAETGDLETVAGFPQDRDELFYCYPKAIWPFSVAQLAAAIAERRGSTVAVHDGQVLGFANFYQWQHGDFCALGNMMVAPAARGLGVARYLIGVMENLAREQYKARLMKISCFNANAAGLLLYTQLGYQPRAIAERHDPDGRRVALIQMDKPLEP” here?
Answer: soluble

Question: For “TSGTLYLVPTPIGNLQDMTFRAVATLKEVDFICAEDTRNTGLLLKHFDIATKQISFHEHNAYEKIPDLIDLLISGRSLAQVSDAGMPSISDPGHDLVKAAIDSDIAVVALPGA”, which “soluble on expression in E. coli” value is on record?
Answer: not soluble

Question: For “MGSDKIHHHHHHMKREEIADLMAFVVVAEERSFTRAAARLSMAQSALSQIVRRIEERLGLRLLTRTTRSVVPTEAGEHLLSVLGPMLHDIDSAMASLSDLQNRPSGTIRITTVEHAAKTILLPAMRTFLKSHPEIDIQLTIDYGLTDVVSERFDAGVRLGGEMDKDMIAIRIGPDIPMAIVGSPDYFSRRSVPTSVSQLIDHQAINLYLPTSGTANRWRLIRGGREVRVRMEGQLLLNTIDLIIDAAIDGHGLAYLPYDQVERAIKEKKLIRVLDKFTPDLPGYHLYYPHRRHAGSAFSLFIDRLKYKGAV”, which “soluble on expression in E. coli” value is on record?
Answer: not soluble

Question: With “MASTKDEVVRMSVDEYWEDIKDDYLIQLANTDPNEVYPSNNPGPTTADGQINFECHCVGHLVGSPCGFEFREAITCQKTNSDGEIEQGACGKELMSFMECVTRTQCFGTGDNDKK” as the sequence, how does the “soluble on expression in E. coli” value read?
Answer: not soluble

Question: With “MLYKRKNIKFKNFVDLHKNLSLSKLFDFYSVFEGFEKLNILNFEDDVFTNIERILLDDYLKIKSYFALDETSSYALTLLAKNNRKRFSINRKIQHFKALSTLKYLLETGIIKLEYSKEAKKIKDKRQKIKKELRSYVVQDKIIFSNHFTRFFFYFLKPNEKLILQNRYKEVLECIKEKFELYQSFCFEQLSRELLEKKFNINGVQSYWDKNLELDLYYQDENLCFVGEVKFKNKKICKNILNLLKSKAKSLNLAPNYYIIISKNGFSKEIDKICEQNLLLLDLNDFKILLEELEHHHHHH” as the sequence, how does the “soluble on expression in E. coli” value read?
Answer: not soluble

Question: For “MGSDDQSAGDRIQKGFQINYMILRDADSGKIIWQENKDFSAPDQEHEARVPVKILDMRAVSREINFSTIESMENFRLDQKVLFKGRIMEEWFFEMGFVGANTTNTWQSTIEAAPESQMMPAKVLNGNVTIQTSFYDNETLITKSVVRLYYILEHHHHHH”, which “soluble on expression in E. coli” value is on record?
Answer: not soluble

Question: With “MGSDKIHHHHHHMKQLVGIPESMLIPLIARAKEYENEKPIIKDALSKKIFDGLDDMYKNVTCDDMSQIGISIRTVIIDCVTKRLIKDNKDLIVVNIGCGLDTRFQRFNKEKISWIDLDVPESIEIRKTFFKESNSYKMISKSMLDYSWIDDVKNYKFFNSKSDILFIIEGVLMYFDESVMTQLLDTIIKKMGDHNLTFAIEFCSKTIANNTKRHQSVSKLSSQPVFKYGYNDLKKLNEILPNTIRVIHEYNYFDYYKNRWGLFGYCRFIPYLKKRLNNKIVLMKYKVPKRQRH” as the sequence, how does the “soluble on expression in E. coli” value read?
Answer: not soluble

Question: With “MSLGIVIYGTRIIYPAEHKEVMVQLMNQGNRSSLMQAWIDDGDTSLPPEKIQVPFMLTPPVAKIGANSGQQVKIKIMPNKLPTNKESIFYLNVLDIPPNSPEQEGKNALKFAMQNRIKLFYRPAGIAPVNKVTFKKLLVNRSGNGLVIKNDSANWVTISDVKANNVKVNYETIMIAPLESQSVNVKSNNANNWHLTIIDDHGNYISDKEGHHHHHH” as the sequence, how does the “soluble on expression in E. coli” value read?
Answer: soluble

Question: Which “soluble on expression in E. coli” value does the source give for “MTEKTTVKTLKDVVVRFCGDSGDGMQLTGTIFSDLSAVFGNTISTFPDYPAEIRAPQGTLGGVSGFQVHIGTDLVRTPGDLADVLVAMNPAALKVNRTHVRRDSIIIIDSDSFMASDLEKAEIASEDFMTELGLTTQELFTVPISSMVKKSTAEFGLDVKAALRCKNMFALGLVCWLFDRPTQHAIDYLNRKFGKKEAILNANIKALADGFNYGHNTHATATTYRIEGRKQTPGVYMDISGNKATAYGLVAAAEHANLNL” here?
Answer: soluble

Question: Which “soluble on expression in E. coli” value does the source give for “MGKREKKPNRRRHKGEYSNDAEDFYDQHPPAVASVDEEDEENSDEEEEENDGNESSDLPSKFLLYQQSVQSPKGDISYLQKFFLIFYIDCWNSAEWLKTDTRRTAIGLDFDLEALEWCMDNNISKLGSDVYSRMSLFHGNVLTPLEAKQVKSKSHELIQNISLDDGDDNEDLADPSVVESLEKDGPDSLPKRDIVCAFNFSCCCLHKRSELVSYFKNARDALSKKGGIFVMDLYGGASAEGQLKLQRKFPNFTYTWEQAEFDILSRKTRISLHYHLQKQNRKIRHAFSYSWRLWSLPEIKDCMEEAGFSSVHFWLREMPDASEMRRTDGFGAGRDIKYEQVKSFQQCDSWNAYIVAVSL” here?
Answer: not soluble

Question: With “MSLSQRTDCSLARRSSTVRKQDSSQAIPLVVESCIRFISRHGLQHEGIFRVSGSQVEVNDIKNAFERGEDPLAGDQNDHDMDSIAGVLKLYFRGLEHPLFPKDIFHDLMACVTMDNLQERALHIRKVLLVLPKTTLIIMRYLFAFLNHLSQFSEENMMDPYNLAICFGPSLMSVPEGHDQVSCQAHVNELIKTIIIQHENIFPSPREEGHHHHHH” as the sequence, how does the “soluble on expression in E. coli” value read?
Answer: soluble

Question: For “MGSDKIHHHHHHMQNIVDNTLLLSYLNNEYIKKLFQQFNHPFKILRYEAKETVLHEGEMIDGLYIQMSGRTKITSSVITGKALLLRFCSAVSIMGDIELIQSVNIQSHVTSEQQTDFLFIDKNYVTSYLLQDVIFLQELIHHVTYKLQTCTTASRINLLASVETRFASYLCTARNPSNLFGREIHTKDHHEIASLIGTTTRHLNRVIEKLIANNIMHKNNKQIVVDDWKAIDTLSNGLRYE”, which “soluble on expression in E. coli” value is on record?
Answer: not soluble

Question: Which “soluble on expression in E. coli” value does the source give for “MTDYGDADKYVNDESIEMAWAIKAGERSEVHMNLIMRCDTRVLRLNKHQDAILAAFRSSFPDLNVEEVTTSLLKDGGAKETWREFCEQFKDIVDDYSMGTLMRIHASKAYSPENTVVVPRIIYLAIEMARNVEGVNEKNKEAYTAHRNSLASL” here?
Answer: soluble

Question: With “GPGSMNRDPQNALLLEQMAQKTKRLLLQRSPSTVNGIRSFSRSLGIADDLGSTQVTAEELQHALQENNVSLEEHELQNIFTVLDRTGKGTIDPTDFIAVMCNNLGPLRKVWLRRVWRMFTKDPDDGSVQVCELQRQFIAEGHPAVVRHETTAAEVRKDFESAFNESTNPDGKISAQEFAEYYAGVSVSCSNDESFVALLRGVWPLPGVSRDFSLSLAKGEAQYQGSYHTEQSLAEKTAVASREAVRSALMRMIRCDHAPVALSSGAAARALCLSLAQADEAGSGFVSEAVFVGALRTHRLYVPNTSVLECLDTNGDGTVDIKYYEELLLPSPSAARLMLLARLWSRCFENKDAAYRVPVQDLHRKYHASSPADKDAFLTAWDVRTAVGGKVELEELVQWYVPQSAAVQRDKDFEALLHRQWGKYDE” as the sequence, how does the “soluble on expression in E. coli” value read?
Answer: soluble

Question: Which “soluble on expression in E. coli” value does the source give for “SSKIILIPSNIPQEFPEASISNPERLRILAQVKDFIPHESTIVIDKVPTITSEQSTYINICIFNLLEACSSRVLVPGTLVNIDAFYDGESINPVDIYEVNGANFTMENIQLIDEMNNSIGKFN” here?
Answer: soluble
